# B1: R135_50, a variant of Mimivirus R135 lacking the first 50 amino acids (domain or fragment)
# chain: TKDNLTGDIVIIGAGAAGSLLAHYLARFSNMKIILLEAGHSHFNDPVVTDPMGFFGKYNPPNENISMSQNPSYSWQGAQEPNTGAYGNRPIIAHGMGFGGSTMINRLNLVVGGRTVFDNDWPVGWKYDDVKNYFRRVLVDINPVRDNTKASITSVALDALRIIAEQQIASGEPVDFLLNKATGNVPNVEKTTPDAVPLNLNDYEGVNSVVAFSSFYMGVNQLSDGNYIRKYAGNTYLNRNYVDENGRGIGKFSGLRVVSDAVVDRIIFKGNRAVGVNYIDREGIMHYVKVNKEVVVTSGAFYTPTILQRSGIGDFTYLSSIGVKNLVYNNPLVGTGLKNHYSPVTITRVHGEPSEVSRFLSNMAANPTNMGFKGLAELGFHRLDPNKPANANTVTYRKYQLMMTAGVGIPAEQQYLSGLSPSSNNLFTLIADDIRFAPEGYIKIGTPNIPRDVPKIFFNTFVTYTPTSAPADQQWPIAQKTLAPLISALLGYDIIYQTLMSMNQTARDSGFQVSLEMVYPLNDLIYKLHNGLATYGANWWHYFVPTLVGDDTPAGREFADTLSKLSYYPRVGAHLDSHQGCSCSIGRTVDSNLKVIGTQNVRVADLSAAAFPPGGNTWATASMIGARAVDLILGFPYLRDLPVNDVPILNVN
# Biological target: the molecule itself
# Test: AUC
protein,measurement,value
B1,stoichiometry N,2
